We go through two molecules from patent publication US20240415889A1 (published 2024).

For assay [1], the target named is T1, single chain CD94/NKG2A-Fc (CD94/NKG2A-IgG1 fusion polypeptide). As to the kind of experiment: ELISA; FIG. 27.
Assay [2] deals with T1, single chain CD94/NKG2A-Fc …. As to the kind of experiment: competitive ELISA (HLA-E tetramer).
For assay [3] the target is unchanged. As to the kind of experiment: BLI.
Assay [4] has the same target. As to the kind of experiment: competitive ELISA (HLA-E tetramer); FIG. 26.

T1 sequence (chain, as listed by the source): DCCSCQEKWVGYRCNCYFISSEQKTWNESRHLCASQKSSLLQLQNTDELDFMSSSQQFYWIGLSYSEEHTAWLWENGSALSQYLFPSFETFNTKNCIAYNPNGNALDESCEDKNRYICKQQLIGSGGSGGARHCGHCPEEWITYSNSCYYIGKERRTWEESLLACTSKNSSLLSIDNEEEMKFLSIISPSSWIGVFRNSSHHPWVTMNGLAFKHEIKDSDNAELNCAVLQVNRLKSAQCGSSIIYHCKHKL

B1: IgG Clone #2 (1B2-6, IgG1-LALA-PG) (antibody, V domains shown)
VH: EVQLVESGGGLVKPGGSLRLSCAASGFTFSGYYMSWIRQAPGKGLEWLAYISNSGRTIYYADSVKGRFTISRDNSNSSLYLQMNSLRAEDTAVYYCARGFYMDAWGKGTTVTVSS
VL: DIQMTQSPSSLSASVGDRVTITCRASQSISSYLNWYQQKPGKAPKLLIYAASSLQSGVPSRFSGSGSGTDFTLTISSLQPEDFGVYYCQYYGISPPFTFGPGTKVDIKR
B1 registered a half-maximal effective concentration (EC50) in assay [1] of 0.64 nM. In assay [2], this molecule showed an IC50 of 1.4 nM.

B2: IgG Clone #1 (1B2, IgG1-LALA-PG) (antibody, V domains shown)
VH: QVQLVESGGGLVKPGGSLRLSCAASGFTFSDYYMSWIRQAPGKGLEWVSYISSSGSTIYYADSVKGRFTISRDNAKNSLYLQMNSLRAEDTAVYYCARGFYMDAWGKGTTVTVSS
VL: DIQMTQSPSSLSASVGDRVTITCRASQSISSYLNWYQQKPGKAPKLLIYAASSLQSGVPSRFSGSGSGTDFTLTISSLQPEDFGVYYCQYYGISPPFTFGPGTKVDIKR
Consider B2, for which, in assay [3], the affinity, expressed as Kd, was 1.14 nM. This molecule showed an EC50 in assay [1] of 1.6 nM. Also, the IC50 worked out at 20 nM in assay [4] and 9.6 nM in assay [2].
